# Measurements reported in patent US20220105194A1, “CONJUGATE COMPRISING LIGAND, SPACER, PEPTIDE LINKER, AND BIOMOLECULE” (ASTELLAS PHARMA INC., priority 2019, published 2022).
# Like-named read-outs stand apart in the source and are kept apart here.
# Columns and labels:
# [1] = set-up: species or system mice (BALB/c nu/nu); conditions: mouse, in vivo
# Experimental: (§1) A Gd-labeled conjugate of the conjugate containing a peptide linker produced in one of the above Examples was administered from the tail vein of tumor-bearing mice so that the protein mass was 0.02 mg (100 μL) per animal. As the tumor-bearing mice used in the present Example, mice (BALB/c nu/nu) that were in a tumor-bearing state brought about by transplanting human colorectal cancer cell line LS174T cells (ATCC(registered trademark); CL-188) at 2.0 to 5.0×10^6 cells/mouse subcutaneously on the back before administration of the sample were used. 24 hours after administration of the sample, the mice were sacrificed, the kidneys and the tumor were removed, and the amounts of Gd in the kidneys and in the tumor were measured using ICP-MS. The present test was carried out in 3 cases in each group, and the mean value of the 3 cases was calculated. The amount of Gd contained per kidney after administration was shown as a percentage of the amount of Gd administered (% of dose/tissue), and the amount of Gd contained per g of tumor tissue was shown as a percentage of the total amount of Gd administered (% of dose/g).
# [2] = Example 4-1: kidney accumulation evaluation test of Gd-labeled conjugates (normal mice); conditions: about 24 hours, relative to control conjugate Ex-No 47
# Experimental: (§2) A Gd-labeled conjugate of the conjugate containing a peptide linker produced in one of the above Examples was administered from the tail vein of mice (BALB/c or BALB/c nu/nu) so that the protein mass was 0.02 mg (100 μL) per animal. After about 24 hours, the mice were sacrificed and the kidneys were removed, and the amount of Gd in the kidneys was measured using ICP-MS. The present test was carried out in 3 cases in each group, the mean value of the 3 cases was calculated, and the amount of Gd contained per kidney after administration was shown as a percentage (% of dose/tissue) of the total amount of Gd administered.
# (§3) Based on the percentage of the control conjugate (% of dose/tissue), the proportion of decrease in the amount of Gd contained in the kidneys of each of the conjugates having a peptide linker was determined and shown in Table 28.
# [3] = system: human colorectal cancer cell line LS174T cells; assay: Example 4-4: amount of tumor accumulation of Gd-labeled conjugates (tumor-bearing mice); conditions: tail vein, 0.02 mg protein per animal, 24 hours, ICP-MS, mean of 3 cases
# Experimental: as §1
# [4] = set-up: species or system mice (BALB/c or BALB/c nu/nu); conditions: mouse, in vivo
# Experimental: as §2
# [5] = mouse, in vivo
# Experimental: as §2, §3
# [6] = mouse, in vivo; remark: listed apart in the source
# Experimental: as §2
# [7] = molecular target: human cancer-specific MUC1; assay: Example 6-2: ELISA binding activity of anti-human MUC1 antibody Fab^5 fragment conjugates; conditions: immobilized human cancer-specific MUC1 peptide, run in duplicate, read-out: EC50
# Experimental: Each anti-human MUC1 antibody Fab^5 fragment conjugate prepared by the method of Example 5 was subjected to ELISA to evaluate the binding activity thereof to human cancer-specific MUC1. In the present test, 20×PBS/Tween 20 Buffer (Thermo Fisher Scientific Inc., 28352) diluted 20-fold with distilled water was used as a wash liquid. In addition, for bovine serum albumin (BSA) used in the present test, 30% Bovine Serum Albumin solution (Sigma-Aldrich, Inc., A9576-50ML) was added in an appropriate proportion for use. A human cancer-specific MUC1 peptide (PTL 1) at 0.5 μmol/L was added to a Nunc MaxiSorp White 384 plate (Nunc, 460372) at 30 μL per well, and the plate was incubated overnight at 4° C. for immobilization. The MUC1 peptide was removed by reverse centrifugation, and then blocking was carried out by adding a PBS/Tween 20 buffer containing 5.0% BSA. […] The substrate was incubated at room temperature for 15 minutes, and then a signal value thereof was measured using an Envision counter (PerkinElmer, Inc.).
# The test for each antibody was carried out in duplicate, and the EC50 value was calculated using a 4-parameter logistic curve model.
# [8] = set-up: species or system mice (BALB/c or BALB/c nu/nu); conditions: mouse, in vivo; remark: listed apart in the source
# Experimental: as §2
# Based on the amount of Gd contained in the kidneys of the control conjugate, the proportion of decrease in the amount of Gd contained in the kidneys of each of the conjugates having a peptide linker was determined.
# [9] = molecular target: human cancer-specific MUC1 peptide (PTL 1) (human); assay: ELISA, immobilised MUC1 peptide (Example 6-1)
# [10] = molecular target: human cancer-specific MUC1 peptide (PTL 1) (human); assay: ELISA, immobilised MUC1 peptide (Example 6-2)
# Sequence of human cancer-specific MUC1 peptide (PTL 1) (human) (main, as listed by the source): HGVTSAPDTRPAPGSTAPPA
molecule,measurement,setting,value
"[Gd/DOTA-[2,5-(1,2,3,4-tetrahydroisoquinoline)]-C(═O)-Met-Gly-Lys*-Z2(#N)]p-Fab^2 (conjugate) heavy: EVQLVESGGGLVQPGGSLRLSCAASGFNIRDTYMHWVRQAPGKGLEWVARIDPANGNSRYVPKFQGRFTISADTSRNTAYLQMNSLRAEDTAVYYCAPFGYYVSDYAMAYWGQGTLVTVSSASTKGPSVFPLAPSSKSTSGGTAALGCLVKDYFPEPVTVSWNSGALTSGVHTFPAVLQSSGLYSLSSVVTVPSSSLGTQTYICNVNHKPSNTKVDKKVEPKSCD light: DIQLTQSPSSLSASVGDRVTITCRAGESVDIFGVGFLHWYQQKPGKAPKLLIYRASNLESGIPSRFSGSGSRTDFTLTISSLQPEDFATYYCQQTNEDPYTFGQGTKVEIKRTVAAPSVFIFPPSDEQLKSGTASVVCLLNNFYPREAKVQWKVDNALQSGNSQESVTEQDSKDSTYSLSSTLTLSKADYEKHKVYACEVTHQGLSSPVTKSFNRGEC","Renal residual amount (cancer-bearing mice), % of dose/tissue",[1],7.30 % of dose/tissue
same,"Renal residual amount (cancer-bearing mice), Proportion of decrease (%)",[1],71.74%
same,Proportion of decrease (%) in the amount of Gd contained in the kidneys,[2],82.9%
same,"Amount of tumor accumulation (tumor-bearing mice), % of dose/g",[3],4.53 % of dose/g
[Gd/DOTA]p-Fab^2 (conjugate) heavy: EVQLVESGGGLVQPGGSLRLSCAASGFNIRDTYMHWVRQAPGKGLEWVARIDPANGNSRYVPKFQGRFTISADTSRNTAYLQMNSLRAEDTAVYYCAPFGYYVSDYAMAYWGQGTLVTVSSASTKGPSVFPLAPSSKSTSGGTAALGCLVKDYFPEPVTVSWNSGALTSGVHTFPAVLQSSGLYSLSSVVTVPSSSLGTQTYICNVNHKPSNTKVDKKVEPKSCD light: DIQLTQSPSSLSASVGDRVTITCRAGESVDIFGVGFLHWYQQKPGKAPKLLIYRASNLESGIPSRFSGSGSRTDFTLTISSLQPEDFATYYCQQTNEDPYTFGQGTKVEIKRTVAAPSVFIFPPSDEQLKSGTASVVCLLNNFYPREAKVQWKVDNALQSGNSQESVTEQDSKDSTYSLSSTLTLSKADYEKHKVYACEVTHQGLSSPVTKSFNRGEC,"Renal residual amount (% of dose/tissue), Mean",[4],29.33 % of dose/tissue
same,"Renal residual amount (% of dose/tissue), Mean",[1],25.83 % of dose/tissue
same,Geometric mean (% of dose/tissue),[5],31.0 % of dose/tissue
same,"Renal residual amount (normal mice), % of dose/tissue",[6],31.30 % of dose/tissue
"[Gd/4arm-DOTA-CH2-(1,4-Ph)-NH—C(═S)-Gly-Phe-Lys*-Z2(#N)]p-Fab^2 (conjugate) heavy: EVQLVESGGGLVQPGGSLRLSCAASGFNIRDTYMHWVRQAPGKGLEWVARIDPANGNSRYVPKFQGRFTISADTSRNTAYLQMNSLRAEDTAVYYCAPFGYYVSDYAMAYWGQGTLVTVSSASTKGPSVFPLAPSSKSTSGGTAALGCLVKDYFPEPVTVSWNSGALTSGVHTFPAVLQSSGLYSLSSVVTVPSSSLGTQTYICNVNHKPSNTKVDKKVEPKSCD light: DIQLTQSPSSLSASVGDRVTITCRAGESVDIFGVGFLHWYQQKPGKAPKLLIYRASNLESGIPSRFSGSGSRTDFTLTISSLQPEDFATYYCQQTNEDPYTFGQGTKVEIKRTVAAPSVFIFPPSDEQLKSGTASVVCLLNNFYPREAKVQWKVDNALQSGNSQESVTEQDSKDSTYSLSSTLTLSKADYEKHKVYACEVTHQGLSSPVTKSFNRGEC",Proportion of decrease (%) in the amount of Gd contained in the kidneys,[2],68.0%
"[Gd/4arm-DOTA-CH2-(1,4-Ph)-NH—C(═S)—NH—CH2-(1,3-Ph)-C(═O)-Met-Gly-Lys*-Z2(#S)]p-Fab^2 (conjugate) heavy: EVQLVESGGGLVQPGGSLRLSCAASGFNIRDTYMHWVRQAPGKGLEWVARIDPANGNSRYVPKFQGRFTISADTSRNTAYLQMNSLRAEDTAVYYCAPFGYYVSDYAMAYWGQGTLVTVSSASTKGPSVFPLAPSSKSTSGGTAALGCLVKDYFPEPVTVSWNSGALTSGVHTFPAVLQSSGLYSLSSVVTVPSSSLGTQTYICNVNHKPSNTKVDKKVEPKSCD light: DIQLTQSPSSLSASVGDRVTITCRAGESVDIFGVGFLHWYQQKPGKAPKLLIYRASNLESGIPSRFSGSGSRTDFTLTISSLQPEDFATYYCQQTNEDPYTFGQGTKVEIKRTVAAPSVFIFPPSDEQLKSGTASVVCLLNNFYPREAKVQWKVDNALQSGNSQESVTEQDSKDSTYSLSSTLTLSKADYEKHKVYACEVTHQGLSSPVTKSFNRGEC",Proportion of decrease (%) in the amount of Gd contained in the kidneys,[2],72.9%
"[Gd/DOTA-NH—CH2-(1,4-Ph)-NH—C(═O)-Met-Ile-NH—(CH2)2—Z1(#S)]p-Fab^5 (conjugate) heavy: QVQLVQSGAEVKKPGASVKVSCKASGYTFTNYGLSWVRQAPGQGLEWMGENHPGSGIIYHNEKFRGRVTLTADRSTSTAYMELSSLRSEDTAVYYCARSSGTRGFDYWGQGTLVTVSSASTKGPSVFPLAPSSKSTSGGTAALGCLVKDYFPEPVTVSWNSGALTSGVHTFPAVLQSSGLYSLSSVVTVPSSSLGTQTYICNVNHKPSNTKVDKKVEPKSCD light: DVVMTQTPLSLSVTPGQPASISCRSSQSIVHSNGNTYLEWYLQKPGQSPQLLIYRVSNRFSGVPDRFSGSGSGTDFTLKISRVEAEDVGVYYCFQGSHGPWTFGQGTKLEIKRTVAAPSVFIFPPSDEQLKSGTASVVCLLNNFYPREAKVQWKVDNALQSGNSQESVTEQDSKDSTYSLSSTLTLSKADYEKHKVYACEVTHQGLSSPVTKSFNRGEC",EC50,[7],90 pM
"[Gd/DOTA-NH—CH2-(1,4-Ph)-NH—C(═O)-Met-Ile-NH—(CH2)2-(A-4 and/or A-5)]p-Fab^5 (conjugate) heavy: QVQLVQSGAEVKKPGASVKVSCKASGYTFTNYGLSWVRQAPGQGLEWMGENHPGSGIIYHNEKFRGRVTLTADRSTSTAYMELSSLRSEDTAVYYCARSSGTRGFDYWGQGTLVTVSSASTKGPSVFPLAPSSKSTSGGTAALGCLVKDYFPEPVTVSWNSGALTSGVHTFPAVLQSSGLYSLSSVVTVPSSSLGTQTYICNVNHKPSNTKVDKKVEPKSCD light: DVVMTQTPLSLSVTPGQPASISCRSSQSIVHSNGNTYLEWYLQKPGQSPQLLIYRVSNRFSGVPDRFSGSGSGTDFTLKISRVEAEDVGVYYCFQGSHGPWTFGQGTKLEIKRTVAAPSVFIFPPSDEQLKSGTASVVCLLNNFYPREAKVQWKVDNALQSGNSQESVTEQDSKDSTYSLSSTLTLSKADYEKHKVYACEVTHQGLSSPVTKSFNRGEC","Renal residual amount (normal mice), % of dose/tissue",[8],2.30 % of dose/tissue
"[Gd/DOTA-NH—CH2-(1,4-Ph)-NH—C(═O)-Met-Ile-NH—(CH2)2-(A-3)]p-Fab^5 (conjugate) heavy: QVQLVQSGAEVKKPGASVKVSCKASGYTFTNYGLSWVRQAPGQGLEWMGENHPGSGIIYHNEKFRGRVTLTADRSTSTAYMELSSLRSEDTAVYYCARSSGTRGFDYWGQGTLVTVSSASTKGPSVFPLAPSSKSTSGGTAALGCLVKDYFPEPVTVSWNSGALTSGVHTFPAVLQSSGLYSLSSVVTVPSSSLGTQTYICNVNHKPSNTKVDKKVEPKSCD light: DVVMTQTPLSLSVTPGQPASISCRSSQSIVHSNGNTYLEWYLQKPGQSPQLLIYRVSNRFSGVPDRFSGSGSGTDFTLKISRVEAEDVGVYYCFQGSHGPWTFGQGTKLEIKRTVAAPSVFIFPPSDEQLKSGTASVVCLLNNFYPREAKVQWKVDNALQSGNSQESVTEQDSKDSTYSLSSTLTLSKADYEKHKVYACEVTHQGLSSPVTKSFNRGEC","Renal residual amount (normal mice), % of dose/tissue",[8],2.80 % of dose/tissue
"([Gd/DOTA-NH-CH2-(1,4-Ph)-NH-C(═O)-Met-Ile-NH-(CH2)2-(A-3)]p-Fab^5) (Fab, V domains shown, labeling portion on p amino groups of the Fab; chain and sites not stated) VH: QVQLVQSGAEVKKPGASVKVSCKASGYTFTNYGLSWVRQAPGQGLEWMGENHPGSGIIYHNEKFRGRVTLTADRSTSTAYMELSSLRSEDTAVYYCARSSGTRGFDYWGQGTLVTVSS VL: DVVMTQTPLSLSVTPGQPASISCRSSQSIVHSNGNTYLEWYLQKPGQSPQLLIYRVSNRFSGVPDRFSGSGSGTDFTLKISRVEAEDVGVYYCFQGSHGPWTFGQGTKLEIKR",EC50,[9],150 pM
"Ex-No 108, conjugate with Fab^5 that does not contain a peptide linker (structure only as drawing CHEM-US-00162) (Fab, V domains shown, labeling portion on p amino groups of the Fab; chain and sites not stated) VH: QVQLVQSGAEVKKPGASVKVSCKASGYTFTNYGLSWVRQAPGQGLEWMGENHPGSGIIYHNEKFRGRVTLTADRSTSTAYMELSSLRSEDTAVYYCARSSGTRGFDYWGQGTLVTVSS VL: DVVMTQTPLSLSVTPGQPASISCRSSQSIVHSNGNTYLEWYLQKPGQSPQLLIYRVSNRFSGVPDRFSGSGSGTDFTLKISRVEAEDVGVYYCFQGSHGPWTFGQGTKLEIKR",EC50,[9],70 pM
same,EC50,[10],70 pM
